“Also recorded” adds a separate entry of the source.
Molecular target: 14C-labeled type I procollagen purified from chick embryo fibroblasts, P02457
Sequence (P02457 23-1453, chain 1 of 2): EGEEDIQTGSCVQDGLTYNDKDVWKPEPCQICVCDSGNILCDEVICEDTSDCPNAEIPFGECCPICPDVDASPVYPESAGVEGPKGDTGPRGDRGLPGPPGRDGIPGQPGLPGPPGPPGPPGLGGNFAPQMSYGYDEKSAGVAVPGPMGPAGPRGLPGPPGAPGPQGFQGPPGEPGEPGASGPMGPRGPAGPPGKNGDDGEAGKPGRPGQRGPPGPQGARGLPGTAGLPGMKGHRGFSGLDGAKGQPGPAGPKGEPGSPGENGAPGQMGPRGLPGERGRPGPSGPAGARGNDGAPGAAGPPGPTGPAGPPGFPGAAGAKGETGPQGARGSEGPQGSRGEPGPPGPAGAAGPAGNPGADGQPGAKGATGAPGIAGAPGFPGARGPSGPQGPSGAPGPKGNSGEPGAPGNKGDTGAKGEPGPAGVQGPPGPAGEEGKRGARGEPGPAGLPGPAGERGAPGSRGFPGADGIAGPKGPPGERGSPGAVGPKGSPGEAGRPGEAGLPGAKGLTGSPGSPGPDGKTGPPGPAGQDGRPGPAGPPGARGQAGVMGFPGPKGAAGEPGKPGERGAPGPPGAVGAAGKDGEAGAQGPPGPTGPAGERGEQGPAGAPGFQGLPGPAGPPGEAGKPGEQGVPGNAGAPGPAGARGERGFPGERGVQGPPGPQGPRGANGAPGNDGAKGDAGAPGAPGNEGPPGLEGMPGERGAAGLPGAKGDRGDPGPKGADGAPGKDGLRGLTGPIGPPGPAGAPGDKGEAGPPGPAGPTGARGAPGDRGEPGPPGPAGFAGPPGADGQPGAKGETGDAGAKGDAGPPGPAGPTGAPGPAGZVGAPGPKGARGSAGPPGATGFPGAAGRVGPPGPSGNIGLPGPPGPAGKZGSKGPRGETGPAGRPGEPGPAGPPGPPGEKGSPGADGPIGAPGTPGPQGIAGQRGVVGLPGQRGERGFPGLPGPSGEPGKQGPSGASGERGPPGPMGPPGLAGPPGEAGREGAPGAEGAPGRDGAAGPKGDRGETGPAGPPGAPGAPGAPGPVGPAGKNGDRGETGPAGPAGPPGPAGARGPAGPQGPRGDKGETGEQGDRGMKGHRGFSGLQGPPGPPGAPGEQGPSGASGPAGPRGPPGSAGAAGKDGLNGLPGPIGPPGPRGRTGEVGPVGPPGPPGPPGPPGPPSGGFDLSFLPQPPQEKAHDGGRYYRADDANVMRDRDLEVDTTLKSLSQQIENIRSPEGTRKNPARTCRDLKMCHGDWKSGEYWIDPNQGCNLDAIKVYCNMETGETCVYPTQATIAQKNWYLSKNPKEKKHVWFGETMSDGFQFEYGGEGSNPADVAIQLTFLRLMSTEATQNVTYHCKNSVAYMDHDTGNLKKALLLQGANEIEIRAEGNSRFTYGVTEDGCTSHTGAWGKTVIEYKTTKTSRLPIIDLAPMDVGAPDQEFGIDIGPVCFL
Sequence (chain, as listed by the source, chain 2 of 2): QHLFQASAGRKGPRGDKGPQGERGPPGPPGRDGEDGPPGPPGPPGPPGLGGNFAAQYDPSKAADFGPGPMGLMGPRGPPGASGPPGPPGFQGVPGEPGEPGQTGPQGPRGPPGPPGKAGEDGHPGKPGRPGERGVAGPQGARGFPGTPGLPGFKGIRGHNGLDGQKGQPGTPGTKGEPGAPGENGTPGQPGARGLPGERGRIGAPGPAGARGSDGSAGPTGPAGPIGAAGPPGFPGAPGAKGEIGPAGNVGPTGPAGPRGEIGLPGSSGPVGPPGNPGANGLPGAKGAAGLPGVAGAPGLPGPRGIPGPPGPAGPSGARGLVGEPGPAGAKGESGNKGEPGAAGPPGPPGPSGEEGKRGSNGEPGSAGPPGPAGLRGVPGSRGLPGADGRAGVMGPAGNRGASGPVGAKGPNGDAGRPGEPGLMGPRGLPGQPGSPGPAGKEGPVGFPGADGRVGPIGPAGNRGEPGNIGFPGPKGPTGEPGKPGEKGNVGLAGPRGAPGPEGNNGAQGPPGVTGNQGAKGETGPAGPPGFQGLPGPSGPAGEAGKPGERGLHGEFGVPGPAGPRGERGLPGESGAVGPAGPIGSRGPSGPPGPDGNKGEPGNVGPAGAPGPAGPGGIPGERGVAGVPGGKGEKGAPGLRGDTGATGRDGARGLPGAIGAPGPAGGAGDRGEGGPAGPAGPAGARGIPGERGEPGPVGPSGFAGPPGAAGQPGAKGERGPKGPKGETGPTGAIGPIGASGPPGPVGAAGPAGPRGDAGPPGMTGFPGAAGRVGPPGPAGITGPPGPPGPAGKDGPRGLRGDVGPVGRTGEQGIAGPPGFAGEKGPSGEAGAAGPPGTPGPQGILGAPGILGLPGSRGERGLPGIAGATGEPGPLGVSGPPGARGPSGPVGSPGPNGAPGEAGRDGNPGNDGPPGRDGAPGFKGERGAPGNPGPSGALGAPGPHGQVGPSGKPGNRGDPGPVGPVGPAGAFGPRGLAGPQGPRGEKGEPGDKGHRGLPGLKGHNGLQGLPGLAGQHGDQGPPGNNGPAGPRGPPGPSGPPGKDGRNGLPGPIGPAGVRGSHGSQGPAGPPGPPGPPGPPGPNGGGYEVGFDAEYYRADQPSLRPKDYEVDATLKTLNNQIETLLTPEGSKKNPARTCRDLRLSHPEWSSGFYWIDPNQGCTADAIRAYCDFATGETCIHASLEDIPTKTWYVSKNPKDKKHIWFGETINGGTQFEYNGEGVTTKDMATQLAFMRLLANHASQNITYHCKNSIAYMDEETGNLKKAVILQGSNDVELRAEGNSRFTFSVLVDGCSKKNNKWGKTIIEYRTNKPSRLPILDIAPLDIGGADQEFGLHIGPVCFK

B1: recombinant pCP-2 with a 6-histidine tag, expressed in E. coli, refolded, without chymotrypsin activation (protein)
chain: LDFPDYTYDLAEEDDSEPLNYKDPCKAAAFLGDIALDEEDLRAFQVQQAVDVRRHTARKSSIKAAVPGNTSTPTCQSTNGQPQRGACGRWRGRSRSRRAATSRPEPVWPDGVIPFVIGGNFTGSQRAVFPQAMRHWEKHTCVTFLERTDEDSYILFTYAPCGCCSYVGRRGGGPQAISMGKNCDKFGIVVHELGHVVGLWHEHTGPDRDRQVSIVRENIQPGQEYNFLKMEPQEVESLGETYDFDSIMHYARNTFSRGIFLDTIVPKYEVNGVKPPIGQRTRLRKGDIAQAPKLYKCPACGETLQDSTGNFSSPEYPNGYSAHMHCVWRICVTPGEKIILNFTSLDLYRSGLCWYQYVEVRDGFWRKAPLRGRFCGSKLPEPIVSTDSRLWVQFRSSSNWLGKGFFPVYEAMWGGDVKKDYGQIQSPNYPDDYRPSKVWMWRIQVSEGFDVGLTFQSFEIERHDSCGYDYLEVRDGHSESSTLIGRYCRYEKPDEIKSTSSPLWLKFVSDGSINKPGFAVNFFKEVDECSRPNRGGCEQRCLNTLGSYKWSCDPGYELPPEKRRCEAPCGGFLTKLNGSISRGGWPKEYPPNKNCIWQLVAPTQYRISLQFDFFETEGNDVCKYDFVEVRSGLTADSKLHGKFCGSEKPEVITSQYNNMRVEFKSDNTVSKKGFKAHFFSDKDECSKDNGGCQQDCVNTFGSYECQCRSGFVLHDNKHDCKEPGCDHKVTSTSGTITSPNWPDKYPSKKECTWAISSTPGHRVKLTFMEMDIESQPECAYDHLEVFDGRDAKAPVLGRFCGSKKPEPVLGTGSRMFLRFYSDNSVQRKGFQASHATECGGQVGADVKTKDLYSHAQFGDNNYPGGVDCEWVIVPEEGYGVEVLFQTFEVEDQTDCGYHYMELFDGYDSTAPRLGRYCGSGPPEEVYSAGDSVLVKFHSDDTITKKGFHLRYTSTKFQDTLHSRK
- C-proteinase activity in a standard reaction system with 14C-labeled procollagen: No C-proteinase activity was observed when the recombinant protein was incubated in a standard reaction system without prior activation of the protein by digestion with chymotrypsin

B2: procollagen C-proteinase pCP-1 (730 amino acids), recombinant, in medium of transfected HT-1080 cells (protein)
chain: AATSRPERVWPDGVIPFVIGGNFTGSQRAVFRQAMRHWEKHTCVTFLERTDEHSYILFTYRPCGCCSYVGPRGGGPQAISIGKNCDKFGIVVHELGHVVGFWHEHTRPDRDRHVSIVRENIQPGQEYNFLKMEPQEVESLGETYDFDSIMHYARNTFSRGIFLDTIVPKYEVNGVKPPIGQRTRLSKGDIAQARKLYKCPACGETLQDSTGNFSSPEYPNGYSAHMHCVWRISVTPGEKIILNFTSLDLYRSPLCWYDYVEVRDGFWRKAPLRGRFCGSKLPEPIVSTDSRLWVEFRSSSNWVGNGFFAVYEGICGGDVKKDYGHIQSPNYPDDYRPSKVCIWRIQVSEGFHVGLTFQSFEIERHDSCAYDYLEVRDGHSESSTLIGRYCGYEKPDDIKSTSSRLWLKFVSDGSINKAGFAVNFFKEVDECSRPNRGGCEQRCLNTLGSYKCSCHPGYELAPDKRRCEAACGGFLTKLNGSITSPGWPKEYPPNKNCIWQLVAPTQYRISLQFDFFETEGNDVCKYDFVEVRSGLTAHSKLHGKFCGSEKPEVITSQYNNMRVEFKSDNTVSKKGFKAHFFSENRPALQPPRGPPHQLKFRVQKRNRTPQ
- C-proteinase activity: cleavage of 14C-labeled type I procollagen, SDS-polyacrylamide gel: Medium from neomycin-resistant clones expressing either pCP-1 or pCP-2 contained enzymatic activity that specifically cleaved type I procollagen into the products predicted by the introduction of C-proteinase

B3: procollagen C-proteinase pCP-2 (986 amino acids), recombinant, in medium of transfected HT-1080 cells (protein)
chain: AATSRPEPVWPDGVIPFVIGGNFTGSQRAVFPQAMRHWEKHTCVTFLERTDEDSYILFTYAPCGCCSYVGRRGGGPQAISMGKNCDKFGIVVHELGHVVGLWHEHTGPDRDRQVSIVRENIQPGQEYNFLKMEPQEVESLGETYDFDSIMHYARNTFSRGIFLDTIVPKYEVNGVKPPIGQRTRLRKGDIAQAPKLYKCPACGETLQDSTGNFSSPEYPNGYSAHMHCVWRICVTPGEKIILNFTSLDLYRSGLCWYQYVEVRDGFWRKAPLRGRFCGSKLPEPIVSTDSRLWVQFRSSSNWLGKGFFPVYEAMWGGDVKKDYGQIQSPNYPDDYRPSKVWMWRIQVSEGFDVGLTFQSFEIERHDSCGYDYLEVRDGHSESSTLIGRYCRYEKPDEIKSTSSPLWLKFVSDGSINKPGFAVNFFKEVDECSRPNRGGCEQRCLNTLGSYKWSCDPGYELPPEKRRCEAPCGGFLTKLNGSISRGGWPKEYPPNKNCIWQLVAPTQYRISLQFDFFETEGNDVCKYDFVEVRSGLTADSKLHGKFCGSEKPEVITSQYNNMRVEFKSDNTVSKKGFKAHFFSDKDECSKDNGGCQQDCVNTFGSYECQCRSGFVLHDNKHDCKEPGCDHKVTSTSGTITSPNWPDKYPSKKECTWAISSTPGHRVKLTFMEMDIESQPECAYDHLEVFDGRDAKAPVLGRFCGSKKPEPVLGTGSRMFLRFYSDNSVQRKGFQASHATECGGQVGADVKTKDLYSHAQFGDNNYPGGVDCEWVIVPEEGYGVEVLFQTFEVEDQTDCGYHYMELFDGYDSTAPRLGRYCGSGPPEEVYSAGDSVLVKFHSDDTITKKGFHLRYTSTKFQDTLHSRK
- C-proteinase activity: cleavage of 14C-labeled type I procollagen, SDS-polyacrylamide gel: Medium from neomycin-resistant clones expressing either pCP-1 or pCP-2 contained enzymatic activity that specifically cleaved type I procollagen into the products predicted by the introduction of C-proteinase; also recorded: Complete cleavage of type I procollagen to pNα1 (I) chains, pNα2 (I) chains and the C-propeptide were obtained with medium from a clone transfected with pCP-2 and partially fractionated and concentrated by membrane filtration

B4: recombinant pCP-2 with a 6-histidine tag, expressed in E. coli, refolded and activated by limited digestion with chymotrypsin (protein)
chain: AATSRPEPVWPDGVIPFVIGGNFTGSQRAVFPQAMRHWEKHTCVTFLERTDEDSYILFTYAPCGCCSYVGRRGGGPQAISMGKNCDKFGIVVHELGHVVGLWHEHTGPDRDRQVSIVRENIQPGQEYNFLKMEPQEVESLGETYDFDSIMHYARNTFSRGIFLDTIVPKYEVNGVKPPIGQRTRLRKGDIAQAPKLYKCPACGETLQDSTGNFSSPEYPNGYSAHMHCVWRICVTPGEKIILNFTSLDLYRSGLCWYQYVEVRDGFWRKAPLRGRFCGSKLPEPIVSTDSRLWVQFRSSSNWLGKGFFPVYEAMWGGDVKKDYGQIQSPNYPDDYRPSKVWMWRIQVSEGFDVGLTFQSFEIERHDSCGYDYLEVRDGHSESSTLIGRYCRYEKPDEIKSTSSPLWLKFVSDGSINKPGFAVNFFKEVDECSRPNRGGCEQRCLNTLGSYKWSCDPGYELPPEKRRCEAPCGGFLTKLNGSISRGGWPKEYPPNKNCIWQLVAPTQYRISLQFDFFETEGNDVCKYDFVEVRSGLTADSKLHGKFCGSEKPEVITSQYNNMRVEFKSDNTVSKKGFKAHFFSDKDECSKDNGGCQQDCVNTFGSYECQCRSGFVLHDNKHDCKEPGCDHKVTSTSGTITSPNWPDKYPSKKECTWAISSTPGHRVKLTFMEMDIESQPECAYDHLEVFDGRDAKAPVLGRFCGSKKPEPVLGTGSRMFLRFYSDNSVQRKGFQASHATECGGQVGADVKTKDLYSHAQFGDNNYPGGVDCEWVIVPEEGYGVEVLFQTFEVEDQTDCGYHYMELFDGYDSTAPRLGRYCGSGPPEEVYSAGDSVLVKFHSDDTITKKGFHLRYTSTKFQDTLHSRK
- C-proteinase activity in a standard reaction system with 14C-labeled procollagen: Specific C-proteinase activity was observed (Lanes 1 to 4 in FIG. 5 ) after limited digestion with chymotrypsin
- specific activity relative to C-proteinase isolated from chick embryo tendons: about 1/30-th of the specific activity of C-proteinase isolated from chick embryo tendons

Source: US6562613
